Experimental data published in patent US20150023989A1 (Seagen, published 2015).

Biological target: T1, hFGFR2α-Fc (IIIb) (Human, UniProt P21802-3 22-378, biotinylated with biotin-LC-NHS (2-fold molar excess), positions not stated)
T1 construct: Bought protein; also called RnD Systems 663-FR; not shown: Fc part of the bought fusion protein
Test: ELISA; biotinylated Fc fusion protein on streptavidin plate, Fab at 1 µg/ml; signal against TRAIL-Fc wells (+++: ratio >5)

T1 sequence (P21802 other isoform, or with tags, fused parts or gaps limits assumed): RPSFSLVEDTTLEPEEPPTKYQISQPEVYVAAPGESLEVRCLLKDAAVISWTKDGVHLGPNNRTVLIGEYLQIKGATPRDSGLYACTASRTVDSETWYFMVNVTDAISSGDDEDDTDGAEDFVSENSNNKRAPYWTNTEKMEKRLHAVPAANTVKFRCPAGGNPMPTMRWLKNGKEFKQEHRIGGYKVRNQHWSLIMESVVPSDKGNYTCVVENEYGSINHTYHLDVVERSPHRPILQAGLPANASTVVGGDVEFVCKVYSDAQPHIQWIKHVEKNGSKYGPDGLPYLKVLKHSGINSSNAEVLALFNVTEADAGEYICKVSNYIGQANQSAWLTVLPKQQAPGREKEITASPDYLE

B1: parental Fab fragment M048-D01 (Fab, V domains shown)
VH: EVQLLESGGGLVQPGGSLRLSCAASGFTFSSYAMSWVRQAPGKGLEWVSAISGSGTSTYYADSVKGRFTISRDNSKNTLYLQMNSLRAEDTAVYYCARVRYNWNHGDWFDPWGQGTLVTVSS
VL: QSVLTQPPSASGTPGQRVTISCSGSSSNIGNNYVSWYQQLPGTAPKLLIYENYNRPAGVPDRFSGSKSGTSASLAISGLRSEDEADYYCSSWDDSLNYWVFGGGTKLTVL
notes: Fab from the n-CoDeR phage display library, expressed in E. coli and purified through its his-tag; constant domains and tag are not; also called M048-D01 Fab; sFab
  binding result: binds
